Measured values taken from patent US20040023916A1 (NATIONAL INSTITUTES OF HEALTH NIH, published 2004).

Target: T1, mouse Plasma Cell Membrane Glycoprotein-1 (PC-1) (mouse, UniProt P06802 1-906, limits assumed)
T1 construct: Measured as NTPPPH activity, which in these cells also includes the isozyme B10; also called Enpp1; NPP1
T1 sequence (looked up): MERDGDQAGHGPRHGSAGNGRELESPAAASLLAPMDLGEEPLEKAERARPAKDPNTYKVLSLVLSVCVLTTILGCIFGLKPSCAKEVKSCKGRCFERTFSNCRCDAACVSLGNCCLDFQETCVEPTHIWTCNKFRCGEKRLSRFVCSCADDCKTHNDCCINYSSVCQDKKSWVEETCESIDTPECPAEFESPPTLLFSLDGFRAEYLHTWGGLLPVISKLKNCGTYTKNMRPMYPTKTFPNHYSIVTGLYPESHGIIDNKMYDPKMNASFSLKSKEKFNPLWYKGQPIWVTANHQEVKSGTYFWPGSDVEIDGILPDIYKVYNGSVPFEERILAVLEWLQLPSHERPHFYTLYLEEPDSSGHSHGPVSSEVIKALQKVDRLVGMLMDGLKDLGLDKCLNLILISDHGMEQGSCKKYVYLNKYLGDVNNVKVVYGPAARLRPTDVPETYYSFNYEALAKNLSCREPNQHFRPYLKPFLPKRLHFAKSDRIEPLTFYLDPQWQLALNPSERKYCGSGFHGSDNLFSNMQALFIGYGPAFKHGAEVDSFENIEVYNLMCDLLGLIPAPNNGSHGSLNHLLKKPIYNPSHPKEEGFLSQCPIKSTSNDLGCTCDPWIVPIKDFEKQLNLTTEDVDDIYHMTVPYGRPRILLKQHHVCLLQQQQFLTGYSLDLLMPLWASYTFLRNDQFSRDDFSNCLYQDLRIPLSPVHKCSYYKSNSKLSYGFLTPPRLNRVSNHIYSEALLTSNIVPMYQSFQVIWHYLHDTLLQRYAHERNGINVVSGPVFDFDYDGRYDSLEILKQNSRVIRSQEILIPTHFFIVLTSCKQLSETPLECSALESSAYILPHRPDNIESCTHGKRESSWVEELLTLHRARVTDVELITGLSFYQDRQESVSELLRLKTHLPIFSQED
Experiment: co-immunoprecipitation from osteoblast cell lysates, enzyme activity on beads
Source text: Paradoxically, transfection of wild-type TNAP was associated with a significant increase in cell-associated NTPPPH, and an even greater increase in MV fraction-associated NTPPPH activity in MC3T3 cells, but no significant change in activity of transglutaminase activity, which served as a control enzyme for these experiments. […] Specifically, immunoprecipitation of TNAP from osteoblast cell lysates isolated >85% of the TNAP activity, but was not associated with any co-immunoprecipitation of NTPPPH activity (starting mean cell lysate NTPPPH 1.7 Units, and alkaline phosphatase 4.3 Units; beads after immunoprecipitation with antibody to TNAP had mean of 0.09 Units NTPPPH and 4.1 Units alkaline phosphatase; beads after immunoprecipitation with antibody to PC-1 had mean of 1.3 Units NTPPPH and 0.11 Units alkaline phosphatase, n=5).

- binding result: no binding
B1: mouse tissue-nonspecific alkaline phosphatase (TNAP) (enzyme, UniProt P09242 18-501, looked up)
chain: FVPEKERDPSYWRQQAQETLKNALKLQKLNTNVAKNVIMFLGDGMGVSTVTAARILKGQLHHNTGEETRLEMDKFPFVALSKTYNTNAQVPDSAGTATAYLCGVKANEGTVGVSAATERTRCNTTQGNEVTSILRWAKDAGKSVGIVTTTRVNHATPSAAYAHSADRDWYSDNEMPPEALSQGCKDIAYQLMHNIKDIDVIMGGGRKYMYPKNRTDVEYELDEKARGTRLDGLDLISIWKSFKPRHKHSHYVWNRTELLALDPSRVDYLLGLFEPGDMQYELNRNNLTDPSLSEMVEVALRILTKNLKGFFLLVEGGRIDHGHHEGKAKQALHEAVEMDQAIGKAGAMTSQKDTLTVVTADHSHVFTFGGYTPRGNSIFGLAPMVSDTDKKPFTAILYGNGPGYKVVDGERENVSMVDYAHNNYQAQSAVPLRHETHGGEDVAVFAKGPMAHLLHGVHEQNYIPHVMAYASCIGANLDHCAWAG
notes: The lysates are called only 'osteoblast cell lysates'; Some MC3T3 cells were transfected with human TNAP, so the species in this experiment is not certain; also called Akp2
